Measurements published in patent US20050074840A1 (published 2005).

B1: TNFrED H34P (receptor)
chain: DSVCPQGKYIHPQNNSICCTKCPKGTYLYNDCPGPGQDTDCRECESGSFTASENHLRHCLSCSKCRKEMGQVEISSCTVDRDTVCGCRKNQYRHYWSENLFQCFNCSLCLNGTVHLSCQEKQNTVCTCHAGFFLRENECVSCSNCKKSLECTKLCLPQIEN
notes: Secreted from HEK293-EBNA cells, conditioned medium
B2: TNFrED S87P (receptor)
chain: DSVCPQGKYIHPQNNSICCTKCHKGTYLYNDCPGPGQDTDCRECESGSFTASENHLRHCLSCSKCRKEMGQVEISPCTVDRDTVCGCRKNQYRHYWSENLFQCFNCSLCLNGTVHLSCQEKQNTVCTCHAGFFLRENECVSCSNCKKSLECTKLCLPQIEN
notes: as for B1
B3: TNFrED H34P+S57I (receptor)
chain: DSVCPQGKYIHPQNNSICCTKCPKGTYLYNDCPGPGQDTDCRECEIGSFTASENHLRHCLSCSKCRKEMGQVEISSCTVDRDTVCGCRKNQYRHYWSENLFQCFNCSLCLNGTVHLSCQEKQNTVCTCHAGFFLRENECVSCSNCKKSLECTKLCLPQIEN
notes: Secreted from HEK293-EBNA cells, conditioned medium; also called H34P + S571
B4: TNFrED S57I (receptor)
chain: DSVCPQGKYIHPQNNSICCTKCHKGTYLYNDCPGPGQDTDCRECEIGSFTASENHLRHCLSCSKCRKEMGQVEISSCTVDRDTVCGCRKNQYRHYWSENLFQCFNCSLCLNGTVHLSCQEKQNTVCTCHAGFFLRENECVSCSNCKKSLECTKLCLPQIEN
notes: Secreted from HEK293-EBNA cells, conditioned medium; also called S571
B5: TNFrED H34P+S57I+S87P (receptor)
chain: DSVCPQGKYIHPQNNSICCTKCPKGTYLYNDCPGPGQDTDCRECEIGSFTASENHLRHCLSCSKCRKEMGQVEISPCTVDRDTVCGCRKNQYRHYWSENLFQCFNCSLCLNGTVHLSCQEKQNTVCTCHAGFFLRENECVSCSNCKKSLECTKLCLPQIEN
notes: Secreted from HEK293-EBNA cells, conditioned medium; also called H34P + S87P + S571
B6: TNFrED H34P+S87P (receptor)
chain: DSVCPQGKYIHPQNNSICCTKCPKGTYLYNDCPGPGQDTDCRECESGSFTASENHLRHCLSCSKCRKEMGQVEISPCTVDRDTVCGCRKNQYRHYWSENLFQCFNCSLCLNGTVHLSCQEKQNTVCTCHAGFFLRENECVSCSNCKKSLECTKLCLPQIEN
notes: as for B1

Target: T1, human TNF-alpha (hTNF-alpha) (human, UniProt P01375 77-233)
T1 construct: also called biotinylated hTNF-; [125I]TNF-
Assay: SPR (BIAcore), TNFrED captured on BAF225 anti-TNFrED surface, TNF-alpha injected at 1-100 nM, global 1:1 fit
Text: Conditioned media from transient transfections of HEK293-EBNA cells were concentrated with Centricon 10s and the amount of TNFrED protein was quantitated with the R & D Systems ELISA for hTNF R-1. […] Conditioned medium (no TNFrED) and HBS were used as negative controls.

What does the source list for B1?
Kd: 0.5 nM; koff: 0.0009 s⁻¹; kon: 1.9e+06 M⁻¹ s⁻¹

B2 was tested. Which Kd did it give?
The Kd was 0.6 nM.

What about the koff of the same binder?
Its koff is 0.0011 s⁻¹.

And the kon?
Its kon is 2e+06 M⁻¹ s⁻¹.

What does the source list for B3?
Kd: 0.6 nM; koff: 0.0012 s⁻¹; kon: 1.9e+06 M⁻¹ s⁻¹

For B4, which Kd is on record?
The Kd was 0.5 nM.

What about the koff of the same binder?
The koff was 0.0009 s⁻¹.

What about the kon of the same binder?
Its kon is 1.9e+06 M⁻¹ s⁻¹.

For B5, which Kd is on record?
Its Kd is 0.6 nM.

And the koff?
The koff was 0.001 s⁻¹.

And the kon?
Its kon is 1.8e+06 M⁻¹ s⁻¹.

How did the Kd turn out when B6 was run?
The Kd was 0.6 nM.

And the koff?
Its koff is 0.0012 s⁻¹.

What about the kon of the same binder?
Its kon is 1.9e+06 M⁻¹ s⁻¹.
